In patent US20220177567A1 (WASHINGTON UNIVERSITY, published 2022):

Legend:
[1] = target: T1, human FLAG-tagged IL12Rβ1 expressed on EL-4 cells (human, UniProt P42701 24-662); test: flow cytometry, hybridoma supernatant followed by anti-mouse IgG PE
T1 construct: whole, on cells; EL-4 cell line transduced with a construct encoding human FLAG-tagged IL12Rβ1; also called EL-4-human IL-12Rβ1 cells; human IL12Rβ1; not shown: FLAG tag
Description: EL-4-human IL-12Rβ1 cell line: The EL-4 cell line was transduced with a construct encoding the human FLAG-tagged IL12Rβ1 Flow cytometry: EL-4-human IL-12Rβ1 cells were stained with supernatants from different hybridoma clones followed by anti-mouse IgG Pe. Staining was compared with that obtained with anti-FLAG Tag followed by anti-mouse IgG Pe. Hybridoma clones staining the same percentage of cells stained by anti-FLAG Tag were selected and further tested in primary cells (FIG. 2).

[2] = target: T2, human IL12Rβ1 (native, on human primary cells) (human, UniProt P42701 24-662); test: summary statement; no affinity method or value given
T2 construct: whole, on cells; Endogenous receptor on human tonsil ILC3 and peripheral blood lymphocytes; also called CD212; interleukin 12 receptor subunit beta 1

- binding result [1]: binds
- binding result [2]: binds
B1: 1G6 anti-IL12Rβ1 monoclonal antibody (antibody, V domains shown)
VH: RVQLQQSGAELAKPGASVRLSCMASGYTFTSYWMHWVKQRPGQGLEWIGYIDPNNGYTKYSQKFKDKATLTADKSSSTANMRLSSLTYEDSAVYYCVRGGEIYYFDYWGQGTTLTVSS
VL: DIQMTQSPSSLSASLGGKVTITCKASQDIYKYIAWYQHKPGKGPRLLIHYTSTLQPGIPSRFSGSGSGRDYSFSISDLEPEDIATYYCLQYDNILWTFGGGTKLEIKR
notes: Hybridoma monoclonal antibody, detected with anti-mouse IgG PE; Tested as hybridoma supernatant and also in biotinylated form; also called IG6; mab (1 G6)
